Results taken from patent publication US20250122242A1, “SELECTION SYSTEMS, PEPTIDES DETERMINED THEREWITH, AND METHODS OF USING SAME” (Wisconsin Alumni Research Foundation, priority 2023, published 2025).

Assays:
Aβ42-GFP = Aβ42-GFP folding reporter fluorescence assay; format: cell-based, E. coli; conditions: expressed from plasmid, 0.04 mM IPTG, compared with CKVWQLL (FIG. 3H)
Protocol: (§1) Single colonies of S2060s transformed with pBL066c and SICLOPPS plasmid were used to make overnight cultures in 2×YT with maintenance antibiotics. The overnight culture was diluted (1:100) into 1 mL DRM on a 96 deep-well plate (VWR, 75870-796) with maintenance antibiotics and IPTG (0, 0.04, 0.2, or 1 mM). The diluted culture was incubated at 37° C. with shaking for 2.5 h, after which aTc (200 ng/mL) was added. 100 μL of the culture was transferred onto a black clear-bottom 96-well plate (VWR, 89131-680) to measure fluorescence signal 2, 3, 5 h after addition of aTc. GFP fluorescence signal (excitation wavelength=485 nm, emission wavelength=535 nm) was then measured using a Tecan M Plex microplate reader.

E. coli = experiment: Growth (OD600) of cells expressing SICLOPPS precursors upon IPTG induction; conditions: OD600, IPTG induction (FIG. 9B)
Protocol: Data reflects 3 biological replicates plotted as individual values.
as §1

Aβ42-T7n = Aβ42-T7n (UniProt P00573+P05067); conditions: clonal SP encoding the sequence
Source text: Therefore, we turned to a split-T7 RNA polymerase (T7 RNAP) reporter used to evolve proteins with improved soluble expression.^33 In our new selection, host E. coli express an aggregation-prone protein (APP) fused to the N-terminal half of split-T7 RNAP (T7n). When the APP-T7n fusion is translated, it misfolds due to the APP, preventing T7n from associating with the C-terminal half of split-T7 RNAP (T7c; FIG. 2A). If a SP-encoded inhibitor binds to and prevents APP aggregation, the fused T7n will remain folded and join with T7c to produce full-length T7 RNAP. The reconstituted T7 RNAP then transcribes gIII, which we place under control of the T7 promoter (PT7), producing pill and allowing the SP to reproduce (FIGS. 2A and 2B).
We used the SICLOPPS method to biosynthesize cyclic peptides that can be selected in E. coli.^15 In SICLOPPS, a precursor fusion consisting of the C-terminal half of the Ssp DnaE split intein, the peptide sequence to be cyclized, and the N-terminal half of the same split intein undergoes intein splicing after translation to produce head-to-tail cyclized peptides (FIG. 7).
Strain S206035 was used for plasmid cloning, amplification, and phage assays. Strain S220835 was used for SP cloning and plaque assays. Plasmids and SPs were cloned by USER assembly or blunt-end ligation. Competent cells were prepared and transformed using the TSS method. Phage propagation and plaque assays were performed as previously described.^54 Unless otherwise noted, phage propagation assays used an input of […] phage to infect a 2 mL culture of host cells.

Sequence of Aβ42-GFP (P05067 672-713): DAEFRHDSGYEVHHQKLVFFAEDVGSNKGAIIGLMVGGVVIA
Sequence of Aβ42-T7n (P05067+P00573 fused): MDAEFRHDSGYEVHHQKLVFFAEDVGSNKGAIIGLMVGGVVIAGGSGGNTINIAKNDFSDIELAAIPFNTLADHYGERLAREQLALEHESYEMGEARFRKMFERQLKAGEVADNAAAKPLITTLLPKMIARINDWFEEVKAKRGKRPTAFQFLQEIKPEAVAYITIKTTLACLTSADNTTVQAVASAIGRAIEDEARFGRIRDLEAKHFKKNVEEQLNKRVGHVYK

CRVYQVL (cyclic; Circular) [cyclo-CRVYQVL]
activity in Aβ42-GFP folding reporter assay (Aβ42-GFP): appeared inactive | effect of construct induction on cell growth (E. coli): greatly decreased cell growth | phage propagation activity (fitness) on Aβ42-T7n selection (Aβ42-T7n): more modest fitness
